Measured values taken from paper PMC8760513, “Mechanistic details of the actinobacterial lyase-catalyzed degradation reaction of 2-hydroxyisobutyryl-CoA” (The Journal of Biological Chemistry, 2021).
Substitutions are numbered along the chain they refer to. Names and notes keep the numbering of the source.

B1: AcHACL (Actinomycetospora chiangmaiensis DSM 45062) (protein)
chain: MADRQDAERSGAGPARQSVPVASLVAEFLQEHGVDRVFGLQGGHIQPIWDQLARRGVRIVDVRDEGSAVHMAHAHTELTGQTAVAMVTAGPGVTNTVTAVANASVSRIPLLVIGGCPPIPQSNMGPLQDIPHTAILEPITRLARTLRSADQVLREFDEAWARASGDRGEPGPVYLEIPTDVLRRDVPPALQMREHLRAKPKRRPQPHPDDVAAVADLIRAAEKPAIISGRGARTTDGTDLVRLLDASGAAYLDTQESRGLVPDSHPAAVGSARSAVMRDTDLLITVGRQLDYQLGMGSPAVFPHAKVVRIADTASELIDNRRGEVEILAEPGAALAAIADALKDHTPDTSWRDELKAKHRKRAEDYRQALHSTENGADGHIHPNRIFGALDALDGDVLDLGETIMIADGGDLLSFGRLGITKARRYLDAGAFGCLGVATPFAIGAALAYPDRPVVAVTGDGAFGITATEIDTAVRHDAKIVVIVSNNRAWNIERYDQAENYGLVVGTDLADSDYAGVARAFGAHGERVTDPAELEGAIRRALANAPALVDVVTTQDAASPDSGKGLGFVPDYQALTPWNDAEVARRQEGI
B2: AcHACL (Actinomycetospora chiangmaiensis DSM 45062; E493Q) (protein)
chain: B1 chain with E493Q
B3: AcHACL (Actinomycetospora chiangmaiensis DSM 45062; E493A) (protein)
chain: B1 chain with E493A

Each protein was assayed on CC(C)(O)C(=O)SCCNC(=O)CCNC(=O)[C@H](O)C(C)(C)COP(=O)(O)OP(=O)(O)OC[C@H]1O[C@@H](n2cnc3c(N)ncnc32)[C@H](O)[C@@H]1OP(=O)(O)O (assay: purified protein). Conditions: lyase direction, 37 °C, pH 7.2, 100 mM potassium phosphate, 10% glycerol, 0.2 mM ThDP, 0.2 mM ADP, 5 mM MgCl2, complex structure with dzThDP.

| Protein | Km [µM] | Vmax [µmol/min/mg] | kcat [s⁻¹] | kcat/Km [M⁻¹ s⁻¹] |
| --- | --- | --- | --- | --- |
| B1 | 120 ± 12 | 1.2 | 1.3 | 11000 |
| B2 | 79 ± 7 | 0.025 | 0.03 | 340 |
| B3 | 21 ± 4 | 0.098 | 0.11 | 5100 |
